Reference: PMC10954455

These binders were tested against Human DNA topoisomerase 1 (Top1) (Homo sapiens, UniProt P11387 1-765) (assay: EMSA).
Sequence of Human DNA topoisomerase 1 (Top1) (P11387 whole entry): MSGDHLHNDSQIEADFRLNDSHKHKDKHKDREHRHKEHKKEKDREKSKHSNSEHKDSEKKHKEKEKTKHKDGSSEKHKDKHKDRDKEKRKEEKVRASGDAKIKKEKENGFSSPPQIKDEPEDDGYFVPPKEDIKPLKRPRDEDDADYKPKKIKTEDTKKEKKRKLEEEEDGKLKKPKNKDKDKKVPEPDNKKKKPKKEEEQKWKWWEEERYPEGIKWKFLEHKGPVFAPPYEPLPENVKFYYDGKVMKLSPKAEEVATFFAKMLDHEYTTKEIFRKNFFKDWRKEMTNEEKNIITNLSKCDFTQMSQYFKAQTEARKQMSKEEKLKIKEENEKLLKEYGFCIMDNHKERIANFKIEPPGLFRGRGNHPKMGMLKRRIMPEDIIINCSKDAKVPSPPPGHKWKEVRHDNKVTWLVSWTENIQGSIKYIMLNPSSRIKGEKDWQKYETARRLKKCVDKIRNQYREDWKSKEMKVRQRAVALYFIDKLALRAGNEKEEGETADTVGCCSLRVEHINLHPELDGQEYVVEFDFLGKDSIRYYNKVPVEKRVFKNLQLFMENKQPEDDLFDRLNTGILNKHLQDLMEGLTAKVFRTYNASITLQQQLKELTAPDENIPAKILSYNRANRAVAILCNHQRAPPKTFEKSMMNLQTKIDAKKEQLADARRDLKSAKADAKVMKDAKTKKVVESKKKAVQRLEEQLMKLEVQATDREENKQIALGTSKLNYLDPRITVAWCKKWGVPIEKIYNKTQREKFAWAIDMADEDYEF

Binder	binding result
CSTB G4 in dsDNA (mixed) DNA 1: CCTGAAGCAGACAGCTAGTGAATTCGGGGCGGGGCGCGGGGCGGGGTACTTGCGTATAACTGTTCCATAGT DNA 2: ACTATGGAACAGTTATACGCAAGTATTTTTTTTTTTTTTTTTTTTTGAATTCACTAGCTGTCTGCTTCAGG	binds
MYOG in dsDNA (no G4 formed) (mixed) DNA 1: CCTGAAGCAGACAGCTAGTGAATTCGGGTGGGCTGGGAGGTACTTGCGTATAACTGTTCCATAGT DNA 2: ACTATGGAACAGTTATACGCAAGTATTTTTTTTTTTTTTTTTTTTTGAATTCACTAGCTGTCTGCTTCAGG	no binding
MYC G4 in dsDNA (mixed) DNA 1: CCTGAAGCAGACAGCTAGTGAATTCGGGTGGGGAGGGTGGGGTACTTGCGTATAACTGTTCCATAGT DNA 2: ACTATGGAACAGTTATACGCAAGTATTTTTTTTTTTTTTTTTTTTTGAATTCACTAGCTGTCTGCTTCAGG	binds
B4-dx2 G4 in dsDNA (mixed) DNA 1: CCTGAAGCAGACAGCTAGTGAATTCGGATCTGAGAATCAGATGTGGGTGGGTGGGTACTTGCGTATAACTGTTCCATAGT DNA 2: ACTATGGAACAGTTATACGCAAGTATTTTTTTTTTTTTTTTTTTTTGAATTCACTAGCTGTCTGCTTCAGG	binds
non-G4 dsDNA (dsDNA) DNA 1: CCTGAAGCAGACAGCTAGTGAATTCAAAAAAAAAAAAAAAAAAAAATACTTGCGTATAACTGTTCCATAGT DNA 2: ACTATGGAACAGTTATACGCAAGTATTTTTTTTTTTTTTTTTTTTTGAATTCACTAGCTGTCTGCTTCAGG	no binding
T4B1 G4 in dsDNA (mixed) DNA 1: CCTGAAGCAGACAGCTAGTGAATTCGTTTTGGTGGGTGGGTGGGTACTTGCGTATAACTGTTCCATAGT DNA 2: ACTATGGAACAGTTATACGCAAGTATTTTTTTTTTTTTTTTTTTTTGAATTCACTAGCTGTCTGCTTCAGG	binds
Tel G4 in dsDNA (mixed) DNA 1: CCTGAAGCAGACAGCTAGTGAATTCGGGTTAGGGTTAGGGTTAGGGTACTTGCGTATAACTGTTCCATAGT DNA 2: ACTATGGAACAGTTATACGCAAGTATTTTTTTTTTTTTTTTTTTTTGAATTCACTAGCTGTCTGCTTCAGG	binds
C9orf72 G4 in dsDNA (mixed) DNA 1: CCTGAAGCAGACAGCTAGTGAATTCGGGGCCGGGGCCGGGGCCGGGGTACTTGCGTATAACTGTTCCATAGT DNA 2: ACTATGGAACAGTTATACGCAAGTATTTTTTTTTTTTTTTTTTTTTGAATTCACTAGCTGTCTGCTTCAGG	binds
C-Kit G4 in dsDNA (mixed) DNA 1: CCTGAAGCAGACAGCTAGTGAATTCGGGCGGGCGCGAGGGAGGGTACTTGCGTATAACTGTTCCATAGT DNA 2: ACTATGGAACAGTTATACGCAAGTATTTTTTTTTTTTTTTTTTTTTGAATTCACTAGCTGTCTGCTTCAGG	binds
PDGFRB G4 in dsDNA (mixed) DNA 1: CCTGAAGCAGACAGCTAGTGAATTCGGGGGGGCGGCGGGGTACTTGCGTATAACTGTTCCATAGT DNA 2: ACTATGGAACAGTTATACGCAAGTATTTTTTTTTTTTTTTTTTTTTGAATTCACTAGCTGTCTGCTTCAGG	binds
BCL-2 G4 in dsDNA (mixed) DNA 1: CCTGAAGCAGACAGCTAGTGAATTCGGGCGCGGGAGGAAGGGGGCGGGTACTTGCGTATAACTGTTCCATAGT DNA 2: ACTATGGAACAGTTATACGCAAGTATTTTTTTTTTTTTTTTTTTTTGAATTCACTAGCTGTCTGCTTCAGG	binds
T1B1 G4 in dsDNA (mixed) DNA 1: CCTGAAGCAGACAGCTAGTGAATTCGTGGTGGGTGGGTGGGTACTTGCGTATAACTGTTCCATAGT DNA 2: ACTATGGAACAGTTATACGCAAGTATTTTTTTTTTTTTTTTTTTTTGAATTCACTAGCTGTCTGCTTCAGG	binds
